For this assay, the target named is its substrates (DNA-bound substrates of p97 on plasmid isolated from extract with p97i). Kind of assay: pull-down; dilution experiment: plasmid incubated 180 minutes in extract with CB-5083, isolated by plasmid pull-down, washed, resuspended in 100 volumes of ELB with or without 5 mM ATP, 21 °C; p97 retained on bead-bound DNA by Western blot over time. (In general: In western blotting, separated proteins are transferred to a membrane and probed.)

Our source for the decrease of DNA-bound p97 within 180 minutes, with ATP and decrease of DNA-bound p97 within 180 minutes, without ATP values is publication PMC6637110.

Substance “p97 (endogenous, Xenopus egg extract) (from UniProt P23787 1-805) (natural protein)” gave a decrease of DNA-bound p97 within 180 minutes, with ATP of 90% and a decrease of DNA-bound p97 within 180 minutes, without ATP of 70%.
